T1: Cyno ST2-fc (cyno; human, UniProt A0A2K5UDB8 19-331)
T1 construct: also called cyno ST2 fused with a human IgG1 Fc tag at the C-terminus
T1 sequence: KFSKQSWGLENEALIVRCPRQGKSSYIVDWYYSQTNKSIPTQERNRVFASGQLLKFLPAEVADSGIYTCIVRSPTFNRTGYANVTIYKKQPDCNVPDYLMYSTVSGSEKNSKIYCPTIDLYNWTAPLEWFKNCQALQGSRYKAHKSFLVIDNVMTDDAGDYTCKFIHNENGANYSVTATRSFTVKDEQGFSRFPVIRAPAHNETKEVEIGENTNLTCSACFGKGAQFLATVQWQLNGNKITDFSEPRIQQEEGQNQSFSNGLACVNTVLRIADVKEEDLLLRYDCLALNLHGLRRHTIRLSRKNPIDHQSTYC

T2: Human ST2-his (human, UniProt Q01638 19-328)
T2 construct: Expressed in CHO-K1; also called human ST2 fused with a 6-histidine tag at the C-terminus
T2 sequence: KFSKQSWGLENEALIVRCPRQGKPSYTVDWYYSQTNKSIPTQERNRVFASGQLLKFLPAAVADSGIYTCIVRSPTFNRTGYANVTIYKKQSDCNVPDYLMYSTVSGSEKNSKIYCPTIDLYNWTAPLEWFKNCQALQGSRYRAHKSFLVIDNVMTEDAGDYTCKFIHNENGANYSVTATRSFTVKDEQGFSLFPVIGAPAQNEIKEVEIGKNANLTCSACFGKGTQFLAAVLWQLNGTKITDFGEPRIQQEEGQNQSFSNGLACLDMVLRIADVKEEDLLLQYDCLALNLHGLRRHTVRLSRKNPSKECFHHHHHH

T3: ST2 on KU812 cells (UniProt Q01638 19-556, limits assumed)
T3 sequence (looked up): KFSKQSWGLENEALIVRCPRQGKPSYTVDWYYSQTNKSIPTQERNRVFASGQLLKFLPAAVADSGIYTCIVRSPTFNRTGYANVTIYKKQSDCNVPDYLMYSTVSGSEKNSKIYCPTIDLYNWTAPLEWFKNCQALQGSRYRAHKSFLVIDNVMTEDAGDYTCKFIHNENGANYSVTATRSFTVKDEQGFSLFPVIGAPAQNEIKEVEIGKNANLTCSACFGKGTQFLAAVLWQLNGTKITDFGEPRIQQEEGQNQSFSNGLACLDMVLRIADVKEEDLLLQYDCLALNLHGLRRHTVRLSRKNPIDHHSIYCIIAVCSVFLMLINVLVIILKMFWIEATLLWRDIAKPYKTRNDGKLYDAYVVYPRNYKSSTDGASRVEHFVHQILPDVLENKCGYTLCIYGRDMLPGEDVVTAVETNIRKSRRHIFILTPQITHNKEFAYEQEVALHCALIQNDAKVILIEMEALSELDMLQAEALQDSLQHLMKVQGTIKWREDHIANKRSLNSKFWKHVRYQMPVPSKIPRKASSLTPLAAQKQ


Experiments:
Cyno ST2-fc [1] = biological target: T1, Cyno ST2-fc; assay: SPR Biacore X100, antibody on CM5, cyno ST2-fc analyte
Protocol: The experiment on the interactions between the anti-human ST2 antibodies and cyno ST2-fc was performed using Biacore X100, and was carried out at 25° C. in HBS-EP (1×) buffer (pH 7.4). Each antibody was immobilized on the surface of CM5 chip using an amino coupling kit. Following the antibody immobilization, a solution of cyno ST2-fc (2-fold gradient dilution from a starting concentration of 8 nM, to obtain 6 concentrations in total; the starting concentration might be increased if the signal of some sample was too low) was injected. Association was monitored for 2 min and dissociation for 10 min, and the sensor surface was regenerated by injecting a solution of glycine at pH 1.5.

Human ST2-his [2] = biological target: T2, Human ST2-his; assay: ELISA, coated human ST2-his
Protocol: Human ST2-his was diluted with a coating buffer to 1 μg/mL, added into plates at 50 μL/well, and coated overnight at 4° C. Next day, the coated plates were taken, washed with PBST for 3 times, and then incubated using a blocking buffer at room temperature for 1 hr. Subsequently, the plates were washed with PBST for 3 times again. Starting at 100 ng/mL, each murine antibody was diluted 3-fold to obtain serial dilutions of 8 concentrations in total which were then added into the 96-well plates at 50 μL/well. The plates were incubated at room temperature for 1 hr, washed with PBST for 3 times; and then a goat anti-mouse secondary antibody (1:10000) was added at 50 μL/well into the 96-well plates which subsequently were incubated at room temperature for 1 hr. The 96-well plates were washed with PBST for 3 times, and TMVB was added at 50 μL/well to develop color in dark for 10 min. Afterwards, 2 M sulfuric acid was added to stop reaction; and GD values at 450 nm were read by a micro-plate reader.

Cyno ST2-fc [3] = biological target: T1, Cyno ST2-fc; assay: ELISA, coated cyno ST2-fc
Protocol: Cyno ST2-fc was diluted with a coating buffer to 1 μg/mL, added into 96-well plates at 50 μL/well and coated overnight at 4° C. Next day, the coated plates were taken, washed with PB ST for 3 times, and then incubated using a blocking buffer at room temperature for 1 hr. Subsequently, the plates were washed with PBST for 3 times again. Starting at 1000 ng/mL, each murine antibody was diluted 3-fold to obtain serial dilutions of 8 concentrations in total which were then added into the 96-well plates at 50 μL/well. The plates were incubated at room temperature for 1 hr, washed with PB ST for 3 times; and then a goat anti-mouse secondary antibody (1:10000) was added at 50 μL/well into the 96-well plates which subsequently were incubated at room temperature for 1 hr. The 96-well plates were washed with PB ST for 3 times, and TMB was added at 50 μL/well to develop color in dark for 10 min. Afterwards, 2 M sulfuric acid was added to stop reaction; and GD values at 450 nm were read by a microplate reader. It can be seen that the murine antibodies can bind to cyno ST2, with a binding trendency consistent with the binding to human ST2.

ST2 on KU812 cells [4] = biological target: T3, ST2 on KU812 cells; assay: cell-based or functional assay
Human ST2-his [5] = biological target: T2, Human ST2-his; assay: SPR Biacore X100, antibody on protein A, ST2-his analyte
Protocol: On the basis of the results of the quantitative screenings of murine antibodies above together, 19 murine antibodies were selected for affinity determination and in vitro pharmacological study. The experiment on the interaction between the anti-human ST2 antibodies and human ST2-his was performed using Biacore X100, and was carried out at 25° C. in HBS-EP (1×) buffer (pH 7.4).
Each anti-human ST2 antibody was diluted to 10 nM and captured on the surface of a protein A chip (for a capture time of 60 s). […] Association was monitored for 4 min and dissociation for 10 min, and the sensor surface was regenerated by injecting a solution of glycine at pH 2.0. Data generated for kinetics and affinity assay were analyzed using BIAevaluation software.

ST2 on KU812 cells [6] = biological target: T3, ST2 on KU812 cells; assay: cell-based or functional assay; remark: listed apart in the source
Human ST2-fc (human) = Human ST2-fc (human) (UniProt Q01638); assay: competition ELISA, coated ST2-fc, competitor IL33-his

Kd (Cyno ST2-fc [1]) | koff (Cyno ST2-fc [1]) | kon (Cyno ST2-fc [1]) | EC50 (Human ST2-his [2]) | Relative activity (%) compared with CNTO7160 (Human ST2-his [2]) | EC50 (Cyno ST2-fc [3]) | Relative activity (%) (Cyno ST2-fc [3]) | IC50, activation of KU812-NF-κB reporter gene by IL33 (ST2 on KU812 cells [4]) | Relative activity (%) compared with CNTO7160, KU812-NF-κB reporter (ST2 on KU812 cells [4]) | Kd (Human ST2-his [5]) | koff (Human ST2-his [5]) | kon (Human ST2-his [5]) | Maximum inhibition rate (%), KU812 IL-5 production (ST2 on KU812 cells [6]) | Relative activity (%), KU812 IL-5 production (ST2 on KU812 cells [6]) | IC50 (Human ST2-fc (human)) | Relative activity (%) compared with CNTO7160 (Human ST2-fc (human)) | Binder
0.0469 nM | 0.000382 s⁻¹ | 8.14e+06 M⁻¹ s⁻¹ | 0.0288 µg/mL | 63.4% | 0.0384 µg/mL | 63.7% | 0.206 µg/mL | 122% | 0.113 nM | 0.00111 s⁻¹ | 9.87e+06 M⁻¹ s⁻¹ | 81.4% | 238% | 0.9 µg/mL | 65.2% | 5888-116H1+L1 (antibody, V domains shown, murine antibody) VH: QVQLQQSGAELVRPGASVTLSCKASGYTFTDSEMYWVRLTPVHGLEWIGAIDPETGDTAFNQKFKGKATLTADKSSSTAYMELRSLTSEDSVVYYCTRAFDNDNDDGFAYWGQGTLVTVSA VL: QIVMTQSPAIMSASPGEKVTMTCSASSSVNYMHWYQQKSGTSPKRWIYDTSKLASGVPARFSGSGSGTSYSLTISSMEAEDAATYYCQQWSSNPLTFGAGTKLELK
0.143 nM | 0.00139 s⁻¹ | 9.68e+06 M⁻¹ s⁻¹ | 0.0209 µg/mL | 87.4% | 0.0303 µg/mL | 80.7% | 0.0495 µg/mL | 506% | 0.0943 nM | 0.000864 s⁻¹ | 9.17e+06 M⁻¹ s⁻¹ | 86% | 115% | 0.75 µg/mL | 78.4% | 5888-153H1+L2 (antibody, V domains shown, murine antibody) VH: QVQLQQSGAELVRPGASVTLSCKASGYTFTDYELHWVKQTPVHGLEWIGTIDPETGDTVYNQKFKAKAILTADKSSSTAYMEFRSLTSEDSAVCYCTRAFYNDYDDGFAYWGQGTLVTVSA VL: QIVMTQTPAIMSASPGEKVTMTCSVSSSVSYMHWYQQKSGTSPKRWIYDTSKLASGVPARFSGSGSGTSYSLTINNMEAEDAATYYCQQWNSSPLTFGAGTKLELK
0.136 nM | 0.000221 s⁻¹ | 1.63e+06 M⁻¹ s⁻¹ | – | – | – | – | – | – | 0.698 nM | 0.000539 s⁻¹ | 827000 M⁻¹ s⁻¹ | 89% | – | – | – | Control antibody CNTO7160 (antibody, human IgG4 S228P, kappa, V domains shown) VH: EVQLLESGGGLVQPGGSLRLSCAASGFTFSIYDMIWVRQAPGKGLEWVSSIRGEGGGTYYADSVKGRFTISRDNSKNTLYLQMNSLRAEDTAVYYCARDPWSTEGSFFVLDYWGQGTLVTVSS VL: EIVLTQSPATLSLSPGERATLSCRASQSVDDDLAWYQQKPGQAPRLLIYDASNRATGIPARFSGSGSGTDFTLTISSLEPEDFAVYYCQQYITAPLTFGQGTKVEIKR

More lines, now with the values behind:

Binder | Kd (Cyno ST2-fc [1]) | koff (Cyno ST2-fc [1]) | kon (Cyno ST2-fc [1]) | EC50 (Human ST2-his [2]) | Relative activity (%) compared with CNTO7160 (Human ST2-his [2]) | EC50 (Cyno ST2-fc [3]) | Relative activity (%) (Cyno ST2-fc [3]) | IC50, activation of KU812-NF-κB reporter gene by IL33 (ST2 on KU812 cells [4]) | Relative activity (%) compared with CNTO7160, KU812-NF-κB reporter (ST2 on KU812 cells [4]) | Kd (Human ST2-his [5]) | koff (Human ST2-his [5]) | kon (Human ST2-his [5]) | Maximum inhibition rate (%), KU812 IL-5 production (ST2 on KU812 cells [6]) | Relative activity (%), KU812 IL-5 production (ST2 on KU812 cells [6]) | IC50 (Human ST2-fc (human)) | Relative activity (%) compared with CNTO7160 (Human ST2-fc (human))
5886-156H+L (antibody, V domains shown, murine antibody) VH: DVQLQQSGPGLVKPSQSLSLTCTVTGYSITSDYAWNWIRQFPGNKLEWMGYIDYSGSTTYNPSLKSRFSITRDTSKNQFFLQLNSVTTEDTATYYCASTVIDSMDYWGQGTSVTVSS VL: DIVLTQSPASLAVSLGQRATISCRASKSVSTSGHSYMHWYQQKPGQPPKLLIYLASNLESGVPARFSGSGSGTDFTLNINPMEEEDAATYYCQHSREFPFTFGSGTKLEIK | 0.206 nM | 0.000747 s⁻¹ | 3.62e+06 M⁻¹ s⁻¹ | 0.0161 µg/mL | 131% | 0.0203 µg/mL | 66.4% | 0.00804 µg/mL | 127% | 0.461 nM | 0.00109 s⁻¹ | 2.37e+06 M⁻¹ s⁻¹ | 84.2% | 304% | 1.14 µg/mL | 76.6%
5887-41H+L (antibody, V domains shown, murine antibody) VH: DVQLQQSGPGLVKPSQSLSLTCTVTGYSITSDYAWDWIRQFPGNKLEWMGYIRYSGDTYYNPSLKSRISITRDTSKNQFFLQLNSVTTEDTATYYCATTMMDTMDYWGQGTSVTVSS VL: DIVLTQSPASLTVSLGQRATISCRASKSVSTSGNSYMHWYQQKPGQPPKLLIYLASNLESGVPARFSGSGSGTDFTLNIHPVEEEDAATYYCQHSREFPLTFGAGTKLELK | 0.0903 nM | 0.000721 s⁻¹ | 7.98e+06 M⁻¹ s⁻¹ | 0.0266 µg/mL | 97.9% | 0.0615 µg/mL | 21.9% | 0.00287 µg/mL | 41.9% | 0.56 nM | 0.000613 s⁻¹ | 1.1e+06 M⁻¹ s⁻¹ | 79.2% | 128% | 1.29 µg/mL | 82.7%
5887-537H3+L1 (antibody, V domains shown, murine antibody; also called 5887-537H3H+L1) VH: QVTLKESGPGILQPSQTLSLTCSFSGFSLSTSGMGVGWIRQPSGKGLEWLAHIWWDDVKQYNPALKSRLTISKDTSSSQVFLKSASVDTADTATYYCARIGGDYDYFDFWGQGTTLTVSS VL: DIVLTQSPASLAVSLGQRATISCRASESVEYSGTSLMQWYQQKPGQPPKLLIYVASNVESGVPARFSGSGSGTDFSLNIHPVEEDDIAMYFCQQSRKVPWTFGGGTKLEIK | 0.0807 nM | 0.000511 s⁻¹ | 6.33e+06 M⁻¹ s⁻¹ | 0.0123 µg/mL | 72.4% | 0.0171 µg/mL | 78.5% | 0.101 µg/mL | 40.2% | 0.168 nM | 0.00084 s⁻¹ | 5.01e+06 M⁻¹ s⁻¹ | 62.2% | 767% | 0.99 µg/mL | 93.5%

Source: patent US12624112 (MABWELL SHANGHAI BIOSCIENCE, dated 2026)
